The text below walks through data of patent US20240417476A1 (ATYR PHARMA, published 2024).

The target in test [1] is T1, NRP2a_scan 5 peptide (biotinylated) (human, also: biotin-conjugated, site not given here).
T1 peptide: EDEIDDEYEVDW
Kind of test: BLI, peptide on sensor, 50 nM antibody. (In general: BLI is a label-free optical method that tracks binding on a fibre tip over time.)

For test [2], the target named is T2, Mid-NRP2A peptide (biotinylated) (human, biotin-conjugated, site not stated).
T2 peptide: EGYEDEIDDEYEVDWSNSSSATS
As to the kind of experiment: BLI, peptide on sensor, 50 nM antibody.

The target in test [3] is T3, NRP2a_scan 6 peptide (biotinylated) (human, also: biotin-conjugated, site not given here).
T3 peptide: IDDEYEVDWSNS
As to the kind of experiment: BLI, peptide on sensor, 50 nM antibody.

The target in test [4] is T4, NRP2a_scan 1 peptide (biotinylated) (human, also: biotin-conjugated, site not given here).
T4 peptide: VDIPEIHEREGY
Kind of test: BLI, peptide on sensor.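 Also: octet RED96e biolayer interferometry with biotin-conjugated NRP2 peptides spanning isoform-specific regions (human and mouse) loaded on biosensors, antibodies applied at 50 nM, association read over 300 s.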

The target in test [5] is T5, mNRP2b peptide (biotinylated) (mouse, biotin-conjugated, site not stated). As to the kind of experiment: BLI, peptide on sensor.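 Also: octet RED96e biolayer interferometry with biotin-conjugated NRP2 peptides spanning isoform-specific regions (human and mouse) loaded on biosensors, antibodies applied at 50 nM, association read over 300 s.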
The target of test [6] is Short NRP2A peptide (biotinylated) (human, biotin-conjugated, site not stated). As to the kind of experiment: BLI, peptide on sensor.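 Also: octet RED96e biolayer interferometry with biotin-conjugated NRP2 peptides spanning isoform-specific regions (human and mouse) loaded on biosensors, antibodies applied at 50 nM, association read over 300 s.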
Test [7] addresses T6, NRP2a_scan 3 peptide (biotinylated) (human, also: biotin-conjugated, site not given here).
T6 peptide: HEREGYEDEIDD
As to the kind of experiment: BLI, peptide on sensor.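 Also: octet RED96e biolayer interferometry with biotin-conjugated NRP2 peptides spanning isoform-specific regions (human and mouse) loaded on biosensors, antibodies applied at 50 nM, association read over 300 s.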

The target in test [8] is T7, NRP2a_scan 2 peptide (biotinylated) (human, also: biotin-conjugated, site not given here).
T7 peptide: PEIHEREGYEDE
Kind of test: BLI, peptide on sensor.

Test [9] addresses T8, NRP2a_scan 7 peptide (biotinylated) (human, also: biotin-conjugated, site not given here).
T8 peptide: EYEVDWSNSSSA
As to the kind of experiment: BLI, peptide on sensor.

Test [10] has as its target T9, NRP2a_scan 4 peptide (biotinylated) (human, also: biotin-conjugated, site not given here).
T9 peptide: EGYEDEIDDEYE
As to the kind of experiment: BLI, peptide on sensor.

For test [11], the target named is T10, NRP2b peptide (biotinylated) (human, biotin-conjugated, site not stated).
T10 construct: also called NRP2b isoform specific peptide
T10 peptide: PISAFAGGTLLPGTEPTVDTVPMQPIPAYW
As to the kind of experiment: peptide ELISA.

Test [12] addresses T11, NRP2A peptide (biotinylated) (human, biotin-conjugated, site not stated).
T11 construct: also called NPR2A; NRP2a specific peptide
Kind of test: BLI, isoform peptide on sensor, 50 nM antibody.

Test [13] addresses T12, Human NRP2a v2 (926aa) in pBiT2.1-C with C-terminal split NanoLuc tag, expressed in Expi293 cells (human, UniProt O60462 23-931).
T12 construct: cDNA Origene RCC220706, isoform 2; also called pBiT2.1-C-NRP2v2 (isoform 2); NRP2 v2; not shown: vector-encoded spacer and small split NanoLuc fragment (pBiT2.1-C)
As to the kind of experiment: CCL21-induced NRP2a/CCR7 receptor dimerization (NanoBiT, Example 7); mark beside the epitope box.

For test [14], the target named is T13, mNRP2A peptide (biotinylated) (mouse, biotin-conjugated, site not stated).
T13 construct: also called mouse NRP2 isoform a peptide
Kind of test: BLI, peptide on sensor, 50 nM antibody.

The target in the next test is T14, NRP2v3.
T14 construct: not the NanoLuc-tagged construct m33; also called human NRP2 v3 expressed on Expi293F cells; NRP2a v3
T14 chain: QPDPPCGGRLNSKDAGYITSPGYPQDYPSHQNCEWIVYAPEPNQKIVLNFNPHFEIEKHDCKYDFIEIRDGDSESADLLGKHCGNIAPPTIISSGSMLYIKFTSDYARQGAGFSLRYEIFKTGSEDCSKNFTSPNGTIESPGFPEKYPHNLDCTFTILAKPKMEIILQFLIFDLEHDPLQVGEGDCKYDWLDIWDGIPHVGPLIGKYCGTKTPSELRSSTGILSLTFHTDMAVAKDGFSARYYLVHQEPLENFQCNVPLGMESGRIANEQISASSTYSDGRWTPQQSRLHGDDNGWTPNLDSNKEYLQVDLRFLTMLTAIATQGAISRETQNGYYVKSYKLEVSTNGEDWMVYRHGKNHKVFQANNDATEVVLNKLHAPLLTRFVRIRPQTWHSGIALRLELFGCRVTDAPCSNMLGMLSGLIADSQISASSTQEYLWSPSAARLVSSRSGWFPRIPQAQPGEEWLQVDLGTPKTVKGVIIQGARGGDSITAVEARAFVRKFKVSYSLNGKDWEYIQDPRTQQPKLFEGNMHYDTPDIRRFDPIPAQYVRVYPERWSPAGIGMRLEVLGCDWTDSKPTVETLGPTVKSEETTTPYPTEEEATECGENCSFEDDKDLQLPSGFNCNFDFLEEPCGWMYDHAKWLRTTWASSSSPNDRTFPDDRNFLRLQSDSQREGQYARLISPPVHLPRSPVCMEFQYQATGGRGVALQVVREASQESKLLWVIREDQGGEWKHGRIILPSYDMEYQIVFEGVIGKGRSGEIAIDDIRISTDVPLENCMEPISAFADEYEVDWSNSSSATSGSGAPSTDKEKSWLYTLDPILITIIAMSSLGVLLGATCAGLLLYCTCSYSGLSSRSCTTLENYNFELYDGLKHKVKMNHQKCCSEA
As to the kind of experiment: flow cytometry, Expi293F cells transfected with the target, fluorescent anti-mouse secondary; MFI signal relative to mock-transfected cells.

The target in test [15] is T15, human NRP2b expressed on Expi293F cells (human).
T15 construct: also called full length NRP2b
T15 chain: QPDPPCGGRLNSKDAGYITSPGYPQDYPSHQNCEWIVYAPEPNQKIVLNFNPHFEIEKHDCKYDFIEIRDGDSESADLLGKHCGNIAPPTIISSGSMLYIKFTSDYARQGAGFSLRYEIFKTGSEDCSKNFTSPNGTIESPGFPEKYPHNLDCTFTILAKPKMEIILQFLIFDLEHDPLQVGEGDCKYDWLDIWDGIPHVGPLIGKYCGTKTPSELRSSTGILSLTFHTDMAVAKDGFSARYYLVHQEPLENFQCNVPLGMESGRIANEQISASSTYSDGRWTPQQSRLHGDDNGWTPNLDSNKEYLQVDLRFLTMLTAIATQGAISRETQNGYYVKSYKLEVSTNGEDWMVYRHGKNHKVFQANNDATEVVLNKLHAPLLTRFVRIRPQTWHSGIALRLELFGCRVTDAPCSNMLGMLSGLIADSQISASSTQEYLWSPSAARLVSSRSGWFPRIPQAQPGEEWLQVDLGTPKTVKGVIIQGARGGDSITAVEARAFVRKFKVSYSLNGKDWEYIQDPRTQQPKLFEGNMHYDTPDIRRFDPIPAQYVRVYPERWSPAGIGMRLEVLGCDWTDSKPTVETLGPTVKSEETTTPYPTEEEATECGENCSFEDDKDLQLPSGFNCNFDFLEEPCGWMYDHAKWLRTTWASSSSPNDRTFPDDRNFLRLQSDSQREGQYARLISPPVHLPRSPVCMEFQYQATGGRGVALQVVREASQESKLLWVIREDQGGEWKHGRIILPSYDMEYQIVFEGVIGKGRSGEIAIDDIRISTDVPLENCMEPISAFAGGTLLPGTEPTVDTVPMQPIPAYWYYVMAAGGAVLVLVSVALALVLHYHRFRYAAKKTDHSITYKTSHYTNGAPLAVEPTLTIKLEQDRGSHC
The test is described as above.
Protocol: (§1) Signal to noise was calculated as the staining intensity of transfected cells compared to an un-transfected ‘mock’ population.

Test [16] addresses T16, human NRP2a v2 expressed on Expi293F cells (human, UniProt O60462 23-931).
T16 construct: cDNA Origene RCC220706; also called NRP2 v2
The test is described as above.
Protocol: as §1

Test [17] deals with T5, mNRP2b peptide (biotinylated). As to the kind of experiment: BLI, peptide on sensor, 50 nM antibody.
Test [18] has as its target T1, NRP2a_scan 5 peptide (biotinylated). Kind of test: BLI, peptide on sensor.
Protocol: (§2) Biolayer interferometry (BLI) experiments were carried out on an Octet RED96e instrument (Sartorius) to further characterize antibody affinities to the NRP2 peptides screened above. Antibodies were epitope mapped using peptides that span the NRP2a isoform specific region; antibodies were also tested for reactivity to an NRP2b isoform specific peptide and cross-reactivity to mNRP2a and mNRP2b peptides (see Table E2 for peptide sequences).
(§3) Antibodies and peptides were diluted in 1×PBS, 0.1% BSA, 0.02% Tween 20, pH 7.4. […] The biosensors were then dipped into 50 nM solutions of each antibody and read for 300s. The biosensors were regenerated in 10 mM glycine, pH 1.5 in between cycles of different antibodies.
Test [19] deals with T17, Mid-mNRP2A peptide (biotinylated) (mouse, biotin-conjugated, site not stated).
T17 peptide: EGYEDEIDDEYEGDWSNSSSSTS
Kind of test: BLI, peptide on sensor.

Test [20] deals with T2, Mid-NRP2A peptide (biotinylated). Kind of test: BLI, peptide on sensor.
Protocol: as §2, §3
The target in test [21] is T3, NRP2a_scan 6 peptide (biotinylated). As to the kind of experiment: BLI, peptide on sensor.
Protocol: as §2, §3

Ends that are not written are not given here.

T5 sequence (peptide, as listed by the source): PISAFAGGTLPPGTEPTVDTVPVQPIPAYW
Protocol for NRP2v3: as §1

B1: aNRP2-403v2 (antibody, V domains shown)
VH: QVQLQQPGAELVKPGASVKLSCKASGYTFTSYWMHWVKQRPGRGLEWIGRIDPNSGDTKYNEKFKSKATLTVDKPSSTAYMQVSSLTSEDSAVYYCARSYDYALEYWGQGTSVTVSS
VL: DVVMTQTPLSLPVSLGDQASISCRSSQSLVHSNGNTYLHWFLQKPGQSPNLLIYKVSNRFSGVPDRFSGSGSGTDFTLKISRVEAEDLGVYFCSQNTRVPRTFGGGTKLEIK
notes: Mouse monoclonal
With B1, the binding result in [1] is “binds”; in test [2] it was “binds”; in test [3] it was “binds”; in test [4], “no binding (tested: 50 nM)”; in test [5], “no binding (tested: 50 nM)”; in [6], “no binding (tested: 50 nM)”. Also, the binding result in test [7] is on record as “no binding (tested: 50 nM)”; in [8], “no binding (tested: 50 nM)”; in [9], “no binding (tested: 50 nM)”; in test [10], “no binding (tested: 50 nM)”; in test [11], “no binding (tested: <3x blank)”; in test [12] it was “binds”.

B2: aNRP2-402v2 (antibody, V domains shown)
VH: EVQLVESGGDLVKPGGSLKLSCAASGFTFSNYAMSWVRQTPEKRLEWVASISDGGSYTYYPDNVKGRFTISRDSAKKSLYLQMSHLKSEDTAMYYCTKDGGPREGYFDVWGTGTTVTVSS
VL: DVLMTQTPLSLPVSLGDQASISCRSSQSIVHSNGNTYLEWYLQKPGQSPKLLIYKVSNRFSGVPDRFSGSGSGTDFTLKISRVEAEDLGVYYCFQGSHVPYTFGGGTKLEIK
notes: Mouse monoclonal
In the case of B2, the blocks receptor dimerization in test [13] is less than 50%. Further, the binding result in test [14] was “binds”; in test [1], “binds”; in [2] it was “binds”; in test [3], “binds”; in test [4] it was “no binding (tested: 50 nM)”; in [6], “no binding (tested: 50 nM)”. Moreover, the binding result was “no binding (tested: 50 nM)” in test [7]; “no binding (tested: 50 nM)” in [8]; “no binding (tested: 50 nM)” in [9]; “no binding (tested: 50 nM)” in [10]; “no binding (tested: <3x blank)” in test [11]; “binds” with NRP2v3. Moreover, the figures for the binding result in [15] and in test [12] were “no binding” and “binds”, respectively.

B3: aNRP2-406v2 (antibody, V domains shown)
VH: EVQLQQSGPELVKPGASVKISCKASGYSFTGYFMNWVKQSHGKSLEWIGRINPYNGDTFYNQKFKGKATLTVDKSSSTAHMALLSLTSEDSAVYYCGREVAEVPFDYWGQGTTLTVSS
VL: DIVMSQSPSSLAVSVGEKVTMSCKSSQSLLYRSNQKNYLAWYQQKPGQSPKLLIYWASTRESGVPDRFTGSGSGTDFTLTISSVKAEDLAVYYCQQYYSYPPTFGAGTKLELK
notes: Mouse monoclonal
On to B3, for which the binding result in [16] was “binds”; in [14] it was “binds”; in test [17], “binds”; in test [18], “no binding (tested: 50 nM)”; in [19], “no binding (tested: 50 nM)”; in test [4] it was “no binding (tested: 50 nM)”. Further, the binding result in [6], in test [7], in test [8], in [9], in test [10] and in test [20] was “no binding (tested: 50 nM)” each time. Moreover, the binding result is on record as “no binding (tested: 50 nM)” in test [21], “binds” with NRP2v3 and “binds” in test [12].
